From patent publication US20040247614A1 (J DAVID GLADSTONE INSTITUTES, published 2004)

Target: T1, GST alone (UniProt P08515 1-218 = GST)
T1 construct: Control in the GST pulldown
Assay: GST pulldown, immunoblot with anti-Tat mAb

T1 sequence (P08515 whole entry): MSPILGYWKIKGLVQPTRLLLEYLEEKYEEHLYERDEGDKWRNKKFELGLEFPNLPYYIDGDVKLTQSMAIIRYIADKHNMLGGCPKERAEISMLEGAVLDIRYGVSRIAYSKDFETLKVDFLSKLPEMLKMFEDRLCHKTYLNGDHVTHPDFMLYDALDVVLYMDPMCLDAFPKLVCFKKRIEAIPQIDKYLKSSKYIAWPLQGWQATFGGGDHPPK

| Binder | binding result |
| --- | --- |
| synthetic unacetylated Tat (other, range 1-72; also called nonacetylated Tat) MEPVDPRLEPWKHPGSQPKTACTTCYCKKCCFHCQVCFTTKALGISYGRKKRRQRRRPPQGSQTHQVSLSKQ | no binding |
| synthetic Tat protein containing a single acetylated lysine at position 50 (AcTat) (other, acetylated lysine at position 50 (K50), range 1-72; also called acetylated Tat; K50-acetylated Tat) MEPVDPRLEPWKHPGSQPKTACTTCYCKKCCFHCQVCFTTKALGISYGRKKRRQRRRPPQGSQTHQVSLSKQ | no binding |
